Laboratory results taken from article PMC3574636.

Biological target: microtubules (tubulin purified from bovine brain) (bovine) (UniProt Q6B856)
Assay: co-sedimentation

microtubules (tubulin purified from bovine brain) (bovine), sequence (Q6B856 whole entry, looked up): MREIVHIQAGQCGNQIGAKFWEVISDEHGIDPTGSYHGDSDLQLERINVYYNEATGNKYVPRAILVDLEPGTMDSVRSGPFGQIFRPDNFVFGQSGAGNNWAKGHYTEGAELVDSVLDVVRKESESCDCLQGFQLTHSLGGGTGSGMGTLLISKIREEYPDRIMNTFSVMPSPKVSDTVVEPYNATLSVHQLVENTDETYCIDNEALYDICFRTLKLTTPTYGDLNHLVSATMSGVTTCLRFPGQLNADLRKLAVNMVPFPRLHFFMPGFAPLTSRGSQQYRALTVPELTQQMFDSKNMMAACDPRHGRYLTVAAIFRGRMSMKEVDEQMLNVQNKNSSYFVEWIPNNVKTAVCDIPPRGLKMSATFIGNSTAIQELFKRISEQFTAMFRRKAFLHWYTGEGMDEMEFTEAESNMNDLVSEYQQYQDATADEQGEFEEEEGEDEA

active fraction by microtubule pulldown (no CK2): 20%
percent of motor bound to microtubules (after CK2, 3:1 kinase:motor): 80%
Substance: native kinesin (kinesin-1, conventional kinesin) purified from bovine brain (complex)
